Experimental data taken from publication PMC8352940 (2021).

Biological target: SARS-CoV-2 RBD without the Fc fragment (SARS-CoV-2, UniProt P0DTC2 319-541)
Test: BLI

Row | Binder | koff [s⁻¹]
1 | nCoVmab2 (antibody, V domains shown) VH: EVQLVQSGGGVVQPGRSLRLSCAASGFTVSSNYMSWVRQAPGKGLEWVSVIYSGGSTYYADSVKGRFTISRDNSKNTLYLQMNSLRAEDTAVYYCARGDGSDDYYYGMDVWGQGTTVTVSS VL: QAVLTQPSSVSGAPGQRVTISCTGSSSNVGAGYDVHWYQQLPGTAPKLLIYGNSNRPSGVPDRFSGSKSGTSASLAITGLQAEDEADYYCQSYDSSLSGSVFGGGTKLTVL | 4.95e-05
2 | nCoVmab1 (antibody, V domains shown) VH: QVQLVESGGGLVQPGGSLRLSCAASGFTVSSNYMSWVRQAPGKGLEWVSVIYSGGSTYYADSVKGRFTISRDNSKNTLYLQMNSLRAEDTAVYYCARGDGSDDYYYGMDVWGQGTTVTVSS VL: QSVVTQPPSVSGAQGQRVFISCTGNGANIGMGYDVHWYQQLPGRAPKLLIFGNTNRPSGVPDRFSASRSGTSASLAITGLQTADEADYYCQSYDGNLRASVFGGGTKLTVL | 1.01e-05
